Assay results: patent US20110195068A1, “PD-1 ANTAGONISTS AND METHODS OF USE THEREOF” (priority 2008, published 2011)
Each block holds one molecule with its values, some of them ahead of it.

Key:
[1] = target: T1, recombinant mouse PD-1/Fc (Mus musculus, UniProt Q02242); experiment: PD-1 binding ELISA, murine B7-DC-Ig; details: plates coated with recombinant mouse PD-1/Fc, compared with wild type, FIG. 1B
T1 construct: Fc; purchased R&D Systems
Description: (§1) 96-well ELISA plates were coated with 100 μL 0.75 ug/mL recombinant mouse PD-1/Fc (R&D Systems) diluted in BupH Carbonate/Bicarbonate pH 9.4 buffer (Pierce) for 2 hours and then blocked with BSA solution (Candor-Bioscience) for 90 minutes. […] Absorbance at 450 nm was read using a plate reader (Molecular Devices) and data were analyzed in SoftMax using a 4-parameter logistic fit.

[2] = target: T2, recombinant human PD-1/Fc (Homo sapiens, UniProt Q15116); experiment: PD-1 binding ELISA, human B7-DC-Ig; details: plates coated with recombinant human PD-1/Fc, four different lots, FIG. 1A
T2 construct: Fc; purchased R&D Systems
Description: as §1, with “human” for “mouse”, “(Jackson ImmunoResearch)” for “(Candor-Bioscience)”, “90-120” for “90”

[3] = tested on: CT26 colorectal tumor cells; details: CTX 100 mg/kg alone, day 10; all mice in the group
Description: Mouse colorectal tumor cell line, CT26, was obtained from ATCC. A master cell bank at Passage 4 was generated following ATCC guidelines.
One vial of tumor cells was thawed from the cryopreserved stocks and grown for two passages prior to inoculation.
CT26 cells were split at 1:5 dilution with 30 mL complete medium (RPMI+10% FBS, 2 mM L-Glu, and 1×P/S) for two days culture or at 1:10 dilution with 30 ml complete medium for 3 days culture.
CT26 cells were harvested by aspirating medium, rinsing the flask with 5 mL PBS, adding 5 mL trypsin, incubating at 37° C. for 2 min, and then neutralizing with 10 mL complete medium. After centrifuge at 600×g (˜1000 rpm) for 5 min, media was aspirated and the cell pellet was resuspended by pipetting with 10 ml plain RPMI. This wash step was repeated for three times.
Cell number and viability of the inoculated cells were analyzed by trypan blue dye staining with proper dilution (e.g. 1:5 dilution, 10 μL cells+40 μL trypan blue) and confirmed by NOVA cell count during the last wash step.
On Day 9, all the tumor-bearing mice were first grouped into a rat cage and randomly divided the mice to experimental groups. CTX solution was reconstituted by 1×PBS to 4 mg/mL. Mice were intraperitoneally (IP) injected with 0.5 mL of CTX solution resulting in 2 mg for a 20 gram mouse, i.e. 100 mg/kg.
The same dose was given 2 time a week for 4 weeks, total 8 doses.

P815 mastocytoma cells = experiment: P815 mastocytoma tumor model; assay type: in vivo, DBA/2 mice
Description: P815 mastocytoma cells were derived from DBA/2 mice after methylcholanthrene (MCA) treatment. Injection of 5×10^4 cells SC can result in mortality approximately 35 days post tumor inoculation.
DBA/2 mice (6-10 weeks of age, females) were first challenged with 5×10^4 live P815 cells injected SC in the flank. Six days later, the mice were treated with murine B7-DC-Ig via IP injection. […] Control groups were treated with vehicle only or with murine IgG. Tumor size was measured with digital calipers every 2-3 days. Mice were euthanized and defined as dead when their tumor size reached or exceeded 1000 mm^3, according to protocols approved by the Institutional Animal Care and Use Committee (IACUC) of the American Red Cross (ARC; the site of Amplimmune's vivarium). Surviving tumor free mice were re-challenged with P815 tumor cells on Day 52.
The tumor-free mice were then re-challenged with 5×10^4 P815 cells administered to the flank opposite the primary inoculation site on Day 52.

[4] = tested on: more aggressive, less immunogenic tumor types; experiment: Activity against more aggressive, less immunogenic tumor types; assay type: in vivo; details: single agent
[5] = 100 ug per injection IP, 2 times per week, up to 6 doses
[6] = 5 mice per group, 5 mg/kg IP biw 3 weeks starting Day 6

T1 sequence (Q02242 with tags, fused parts or gaps limits assumed): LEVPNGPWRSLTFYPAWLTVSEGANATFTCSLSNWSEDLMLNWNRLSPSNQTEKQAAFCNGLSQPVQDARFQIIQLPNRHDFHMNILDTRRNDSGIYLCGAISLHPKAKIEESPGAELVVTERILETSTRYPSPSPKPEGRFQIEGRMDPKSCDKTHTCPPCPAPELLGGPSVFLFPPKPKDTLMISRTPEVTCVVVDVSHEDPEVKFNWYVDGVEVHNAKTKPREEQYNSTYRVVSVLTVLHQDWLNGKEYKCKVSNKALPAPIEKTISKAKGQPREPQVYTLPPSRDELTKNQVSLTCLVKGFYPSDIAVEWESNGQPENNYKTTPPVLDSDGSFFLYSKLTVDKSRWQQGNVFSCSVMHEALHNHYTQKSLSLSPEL
T2 sequence (Q15116 with tags, fused parts or gaps limits assumed): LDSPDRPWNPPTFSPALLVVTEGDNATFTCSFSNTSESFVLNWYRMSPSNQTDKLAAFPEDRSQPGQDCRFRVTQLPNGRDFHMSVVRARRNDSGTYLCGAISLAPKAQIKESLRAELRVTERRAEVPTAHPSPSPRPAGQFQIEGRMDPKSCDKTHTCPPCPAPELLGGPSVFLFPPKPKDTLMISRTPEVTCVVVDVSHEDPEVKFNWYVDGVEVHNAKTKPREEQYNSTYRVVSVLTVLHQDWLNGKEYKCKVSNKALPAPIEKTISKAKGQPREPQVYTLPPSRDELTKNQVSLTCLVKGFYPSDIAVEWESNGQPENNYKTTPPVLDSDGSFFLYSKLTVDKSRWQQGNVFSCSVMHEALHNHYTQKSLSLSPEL

PD-1 binding activity (OD450) [1]: reduced binding to PD-1
Molecule: K113S: murine B7-DC-Ig with the K113S substitution

PD-1 binding activity (OD450) [2]: binding
Molecule: B7-DC-Ig: human PD-L2 (B7-DC) extracellular domain fused to hinge, CH2 and CH3 of human immunoglobulin Cγ1 chain (SEQ ID NO:56/57)

Further lines, the molecule ahead of its results:

Molecule: O=P1(N(CCCl)CCCl)NCCCO1 (stereo not shown) [CTX, cyclophosphamide]
outcome of mice with established tumors [3]: died as a result of tumor growth or were euthanized

Molecule: D111S: murine B7-DC-Ig with the D111S substitution
PD-1 binding activity (OD450) [1]: reduced binding to PD-1

B1: Murine B7-DC-Ig: murine PD-L2 (B7-DC) extracellular domain fused to hinge, CH2 and CH3 of murine immunoglobulin Cγ2a chain (SEQ ID NO:53/54) (protein, listed as Mus musculus)
chain: LFTVTAPKEVYTVDVGSSVSLECDFDRRECTELEGIRASLQKVENDTSLQSERATLLEEQLPLGKALFHIPSVQVRDSGQYRCLVICGAAWDYKYLTVKVKASYMRIDTRILEVPGTGEVQLTCQARGYPLAEVSWQNVSVPANTSHIRTPEGLYQVTSVLRLKPQPSRNFSCMFWNAHMKELTSAIIDPLSRMEPKVPRTWEPRGPTIKPCPPCKCPAPNLLGGPSVFIFPPKIKDVLMISLSPIVTCVVVDVSEDDPDVQISWFVNNVEVHTAQTQTHREDYNSTLRVVSALPIQHQDWMSGKEFKCKVNNKDLPAPIERTISKPKGSVRAPQVYVLPPPEEEMTKKQVTLTCMVTDFMPEDIYVEWTNNGKTELNYKNTEPVLDSDGSYFMYSKLRVEKKNWVERNSYSCSVVHEGLHNHHTTKSFSRTPGK
mice in which tumor was eradicated (P815 mastocytoma cells; [5]): two | mice responded to treatment (P815 mastocytoma cells; [5]): Four of 5 | mice with delayed tumor growth during treatment (P815 mastocytoma cells; [5]): two | # Tumor <500 mm^3 (P815 mastocytoma cells; [6]): 2 | # Tumor free (P815 mastocytoma cells; [6]): 2 | # Tumor ≧500 mm^3 (P815 mastocytoma cells; [6]): 1 | outcome of re-challenge of tumor-free mice (P815 mastocytoma cells; re-challenged with 5×10^4 P815 cells on Day 52, opposite flank, through 74 days after primary inoculation): remained tumor free | anti-tumor activity alone in the P815 model (P815 mastocytoma cells; single agent): effective | anti-tumor activity alone against more aggressive, less immunogenic tumor types [4]: minimal activity
